From publication PMC5027613, “A second DNA binding site in human BRCA2 promotes homologous recombination”

Tests used:
BRCA2 CTD;DSS1 [1] = target: T1, BRCA2 CTD;DSS1 (human;human?, UniProt P51587;P60896 2474-3190;1-70, |); assay: EMSA; lower yield than BRCA2T2; EMSA: 25 mM Tris acetate pH 7.5, 1 mM DTT, 1 mM MgCl2, 2 mM CaCl2, 0.2 uM nucleotides DNA, 1 h at 37 C; 6% native PAGE in 1x TAE; conditions: protein: recombinant;recombinant, tags: 6xHis-SUMO;, copies: 1;1
BRCA2T2 (NTD) [2] = target: T2, BRCA2T2 (NTD) (human, UniProt P51587 251-500); assay: EMSA; yield similar to dsDNA (~40%) at 1.5 uM; EMSA: 25 mM Tris acetate pH 7.5, 1 mM DTT, 1 mM MgCl2, 2 mM CaCl2, 0.2 uM nucleotides DNA, 1 h at 37 C; 6% native PAGE in 1x TAE; conditions: protein: recombinant; tags: N-terminal 2xMBP, 2 NLS; label: 5'-32P
T2 sequence: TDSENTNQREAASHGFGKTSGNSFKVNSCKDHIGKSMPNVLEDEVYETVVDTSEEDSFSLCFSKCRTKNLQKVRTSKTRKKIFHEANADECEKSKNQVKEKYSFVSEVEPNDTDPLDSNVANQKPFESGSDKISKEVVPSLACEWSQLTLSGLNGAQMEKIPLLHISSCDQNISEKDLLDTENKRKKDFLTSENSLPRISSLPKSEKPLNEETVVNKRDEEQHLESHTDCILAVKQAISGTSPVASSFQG

BRCA2 full length = BRCA2 full length (human, UniProt P51587 1-3418); assay: EMSA; ~100 times lower concentration needed than BRCA2T2; EMSA: 25 mM Tris acetate pH 7.5, 1 mM DTT, 1 mM MgCl2, 2 mM CaCl2, 0.2 uM nucleotides DNA, 1 h at 37 C; 6% native PAGE in 1x TAE; conditions: protein: recombinant; tags: N-terminal EGFP-MBP; label: 5'-32P
BRCA2T2 (NTD) [3] = target: T2, BRCA2T2 (NTD); assay: EMSA; higher yield than CTD; EMSA: 25 mM Tris acetate pH 7.5, 1 mM DTT, 1 mM MgCl2, 2 mM CaCl2, 0.2 uM nucleotides DNA, 1 h at 37 C; 6% native PAGE in 1x TAE; conditions: protein: recombinant, tags: N-terminal 2xMBP, 2 NLS
BRCA2 CTD;DSS1 [4] = target: T1, BRCA2 CTD;DSS1; assay: EMSA; EMSA: 25 mM Tris acetate pH 7.5, 1 mM DTT, 1 mM MgCl2, 2 mM CaCl2, 0.2 uM nucleotides DNA, 1 h at 37 C; 6% native PAGE in 1x TAE; conditions: protein: recombinant;recombinant; tags: 6xHis-SUMO;; copies: 1;1; label: 5'-32P on oAC405; blunt
BRCA2T2 (NTD) [5] = target: T2, BRCA2T2 (NTD); assay: as above; conditions: protein: recombinant; tags: N-terminal 2xMBP, 2 NLS; label: 32P; 1:2 1:3, two 42 bp duplexes with 83 nt gap
BRCA2 CTD;DSS1 [6] = target: T1, BRCA2 CTD;DSS1; assay: EMSA; ~40-fold lower yield than BRCA2T2 at 1 uM; EMSA: 25 mM Tris acetate pH 7.5, 1 mM DTT, 1 mM MgCl2, 2 mM CaCl2, 0.2 uM nucleotides DNA, 1 h at 37 C; 6% native PAGE in 1x TAE; conditions: protein: recombinant;recombinant; tags: 6xHis-SUMO;; copies: 1;1; label: 32P; 1:2 1:3, two 42 bp duplexes with 83 nt gap
BRCA2T1 [7] = target: T3, BRCA2T1 (human, UniProt P51587 1-250); assay: EMSA; up to 300 nM; EMSA: 25 mM Tris acetate pH 7.5, 1 mM DTT, 1 mM MgCl2, 2 mM CaCl2, 0.2 uM nucleotides DNA, 1 h at 37 C; 6% native PAGE in 1x TAE; conditions: protein: recombinant; tags: N-terminal 2xMBP, 2 NLS; label: 5'-32P
T3 sequence: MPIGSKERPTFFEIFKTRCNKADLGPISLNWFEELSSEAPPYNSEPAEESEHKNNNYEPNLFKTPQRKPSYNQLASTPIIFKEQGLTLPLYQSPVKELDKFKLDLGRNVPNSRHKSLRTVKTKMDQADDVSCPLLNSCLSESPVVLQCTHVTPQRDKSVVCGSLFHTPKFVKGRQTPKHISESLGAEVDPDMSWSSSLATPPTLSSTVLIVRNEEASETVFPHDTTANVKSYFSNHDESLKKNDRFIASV

BRCA2T1 [8] = target: T3, BRCA2T1; assay: pull-down; not titrated out by free dT40; EMSA: 25 mM Tris acetate pH 7.5, 1 mM DTT, 1 mM MgCl2, 2 mM CaCl2, 0.2 uM nucleotides DNA, 1 h at 37 C; 6% native PAGE in 1x TAE; conditions: protein: recombinant; tags: N-terminal 2xMBP, 2 NLS; label: biotin, on streptavidin beads
BRCA2T2 (NTD) [9] = target: T2, BRCA2T2 (NTD); assay: pull-down; titrated out by excess free dT40; EMSA: 25 mM Tris acetate pH 7.5, 1 mM DTT, 1 mM MgCl2, 2 mM CaCl2, 0.2 uM nucleotides DNA, 1 h at 37 C; 6% native PAGE in 1x TAE; conditions: protein: recombinant; tags: N-terminal 2xMBP, 2 NLS; label: biotin, on streptavidin beads

B1: 167mer ssDNA (oAC423) (ssDNA)
DNA: CTGCTTTATCAAGATAATTTTTCGACTCATCAGAAATATCCGTTTCCTATATTTATTCCTATTATGTTTTATTCATTTACTTATTCTTTATGTTCATTTTTTATATCCTTTACTTTATTTTCTCTGTTTATTCATTTACTTATTTTGTATTATCCTTATCTTATTTA
binding result (BRCA2 CTD;DSS1 [1]; label: 5'-32P): binds
binding result (BRCA2T2 (NTD) [2]): binds
binding result (BRCA2 full length): binds

B2: 3' overhang (oAC423 + oAC490 as stated) (mixed)
DNA 1: CTGCTTTATCAAGATAATTTTTCGACTCATCAGAAATATCCGTTTCCTATATTTATTCCTATTATGTTTTATTCATTTACTTATTCTTTATGTTCATTTTTTATATCCTTTACTTTATTTTCTCTGTTTATTCATTTACTTATTTTGTATTATCCTTATCTTATTTA
DNA 2: TAAATAAGATAAGGATAATACAAAATAAGTAAATGAATAAAC
binding result (BRCA2T2 (NTD) [3]; label: 32P on oAC490): binds
binding result (BRCA2 CTD;DSS1 [1]; label: 32P on oAC490): binds

B3: 5' overhang (oAC423 + oAC403 as stated) (mixed)
DNA 1: CTGCTTTATCAAGATAATTTTTCGACTCATCAGAAATATCCGTTTCCTATATTTATTCCTATTATGTTTTATTCATTTACTTATTCTTTATGTTCATTTTTTATATCCTTTACTTTATTTTCTCTGTTTATTCATTTACTTATTTTGTATTATCCTTATCTTATTTA
DNA 2: CGGATATTTCTGATGAGTCGAAAAATTATCTTGATAAAGCAG
binding result (BRCA2T2 (NTD) [3]; label: 32P): binds
binding result (BRCA2 CTD;DSS1 [1]; label: 32P): binds

B4: 40 bp dsDNA (oAC405/oAC406) (dsDNA)
DNA 1: TAATACAAAATAAGTAAATGAATAAACAGAGAAAATAAAG
DNA 2: CTTTATTTTCTCTGTTTATTCATTTACTTATTTTGTATTA
binding result (BRCA2 CTD;DSS1 [4]): no binding

B5: gapped DNA (oAC423 + oAC403 + oAC490) (mixed)
DNA 1: CTGCTTTATCAAGATAATTTTTCGACTCATCAGAAATATCCGTTTCCTATATTTATTCCTATTATGTTTTATTCATTTACTTATTCTTTATGTTCATTTTTTATATCCTTTACTTTATTTTCTCTGTTTATTCATTTACTTATTTTGTATTATCCTTATCTTATTTA
DNA 2: CGGATATTTCTGATGAGTCGAAAAATTATCTTGATAAAGCAG
DNA 3: TAAATAAGATAAGGATAATACAAAATAAGTAAATGAATAAAC
binding signal (BRCA2T2 (NTD) [5]): ~40 fold higher yield than CTD at 1 uM
binding result (BRCA2 CTD;DSS1 [6]): binds

TTTTTTTTTTTTTTTTTTTTTTTTTTTTTTTTTTTTTTTT (ssDNA) [dT40 (oAC379)]
binding result (BRCA2T1 [7]): no binding

B6: dT80 biotin (ssDNA)
DNA: TTTTTTTTTTTTTTTTTTTTTTTTTTTTTTTTTTTTTTTTTTTTTTTTTTTTTTTTTTTTTTTTTTTTTTTTTTTTTTTT
modifications: 3'-biotin
binding result (BRCA2T1 [8]): no binding
binding result (BRCA2T2 (NTD) [9]): binds
